Assay results from patent publication US20220016130A1 (MAYO FOUNDATION FOR MEDICAL EDUCATION AND RESEARCH, published 2022).

Key:
BRD2 = target: T1, BRD2 (human, UniProt P25440 1-801); experiment: figure legend title; yeast two-hybrid and co-IP
T1 construct: One entry covers endogenous and FLAG-tagged full-length BRD2; also called FLAG-BRD2; Flag-BRD2
Description: (§1) A total of 2×10⁷ independent clones were screened by growth in deficient medium and X-gal staining. The positive clones were subsequently retested in fresh yeast cells, and the identities of prey were determined with interaction sequence tags (ISTs) obtained by DNA sequencing. The reading frame was verified.
(§2) To immunoprecipitate the ectopically expressed FLAG-tagged proteins, transfected cells were lysed 24 hours post-transfection in BC100 buffer. The whole-cell lysates were immunoprecipitated with the monoclonal anti-FLAG antibody-conjugated M2 agarose beads (Sigma-Aldrich) at 4° C. overnight. After three washes with lysis buffer, followed by two washes with BC100 buffer, the bound proteins were eluted using FLAG-Peptide (Sigma-Aldrich) prepared in BC100 for 3 hours at 4° C. The eluted protein sample was resolved by SDS-PAGE. To immunoprecipitate the endogenous proteins, cells were lysed with 1× cell lysis buffer (Cell Signaling Technology), and the lysate was centrifuged. The supernatant was precleared with protein A/G beads (Sigma-Aldrich) and incubated with the indicated antibody and protein A/G beads at 4° C. overnight. Beads were washed five times with lysis buffer and resuspended in sample buffer and analyzed by SDS-PAGE.

BRD3 = target: T2, BRD3 (human, UniProt Q15059 1-726); experiment: co-IP, ectopic in 293T and endogenous in LNCaP cells
T2 construct: One entry covers endogenous and FLAG-tagged full-length BRD3; also called FLAG-BRD3; Flag-BRD3
Description: as §2

SRC-3 = target: T3, SRC-3 (human, UniProt Q9Y6Q9 2-1424, limits assumed); experiment: yeast two-hybrid screen, human fetal brain cDNA library
T3 construct: Positive clone of the yeast two-hybrid screen
Description: as §1

DEK = target: T4, DEK (human, UniProt P35659 2-375, limits assumed); experiment: as above
T4 construct: Positive clone of the yeast two-hybrid screen
T4 sequence (looked up): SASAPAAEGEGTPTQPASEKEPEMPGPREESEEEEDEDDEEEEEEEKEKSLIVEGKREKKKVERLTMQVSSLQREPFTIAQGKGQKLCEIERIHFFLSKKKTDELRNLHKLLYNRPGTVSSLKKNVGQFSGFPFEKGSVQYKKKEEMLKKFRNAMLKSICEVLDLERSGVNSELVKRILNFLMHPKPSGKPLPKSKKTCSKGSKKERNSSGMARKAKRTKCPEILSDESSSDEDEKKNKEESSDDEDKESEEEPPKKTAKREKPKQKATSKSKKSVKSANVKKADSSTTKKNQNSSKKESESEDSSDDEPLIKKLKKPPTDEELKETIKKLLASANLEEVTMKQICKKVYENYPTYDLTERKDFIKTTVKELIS
Description: as §1

[1] = target: T5, BRD4 SBC motif-deleted mutant (human, UniProt O60885 1-1362, limits assumed); experiment: co-IP (anti-FLAG) in 293T cells
T5 construct: The deleted residues are not numbered in the text; also called FLAG-BRD4 mutant; not shown: FLAG tag

[2] = target: T6, BRD3 SBC motif-deleted mutant (human, UniProt Q15059 1-726, limits assumed); experiment: co-IP (anti-FLAG) in 293T cells
T6 construct: The deleted residues are not numbered in the text; also called FLAG-BRD3 mutant; not shown: FLAG tag

[3] = target: T7, BRD2 SBC motif-deleted mutant (human, UniProt P25440 1-801, limits assumed); experiment: co-IP (anti-FLAG) in 293T cells
T7 construct: The deleted residues are not numbered in the text; also called FLAG-BRD2 mutant; not shown: FLAG tag

binding result (BRD2): binds
binding result (BRD3): binds
binding result (SRC-3): binds
binding result (DEK): binds
binding result [1]: no binding
binding result [2]: no binding
binding result [3]: no binding
B1: SPOP (speckle-type POZ polypeptide), wild-type (other, human, UniProt O43791 1-374, looked up)
chain: MSRVPSPPPPAEMSSGPVAESWCYTQIKVVKFSYMWTINNFSFCREEMGEVIKSSTFSSGANDKLKWCLRVNPKGLDEESKDYLSLYLLLVSCPKSEVRAKFKFSILNAKGEETKAMESQRAYRFVQGKDWGFKKFIRRDFLLDEANGLLPDDKLTLFCEVSVVQDSVNISGQNTMNMVKVPECRLADELGGLWENSRFTDCCLCVAGQEFQAHKAILAARSPVFSAMFEHEMEESKKNRVEINDVEPEVFKEMMCFIYTGKAPNLDKMADDLLAAADKYALERLKVMCEDALCSNLSVENAAEILILADLHSADQLKTQAVDFINYHASDVLETSGWKSMVVSHPHLVAEAYRSLASAQCPFLGPPRKRLKQS
notes: also called SPOP-WT; wild-type SPOP
